In PMC3334367 (Molecular Cell, 2012):
One block for each binder: values may come before it.

Molecular target: T1, GST-RNC (GST fused N-terminal RNC domain of Kog1, amino acids 1-637) (yeast, UniProt P38873 1-637)
T1 sequence (looked up): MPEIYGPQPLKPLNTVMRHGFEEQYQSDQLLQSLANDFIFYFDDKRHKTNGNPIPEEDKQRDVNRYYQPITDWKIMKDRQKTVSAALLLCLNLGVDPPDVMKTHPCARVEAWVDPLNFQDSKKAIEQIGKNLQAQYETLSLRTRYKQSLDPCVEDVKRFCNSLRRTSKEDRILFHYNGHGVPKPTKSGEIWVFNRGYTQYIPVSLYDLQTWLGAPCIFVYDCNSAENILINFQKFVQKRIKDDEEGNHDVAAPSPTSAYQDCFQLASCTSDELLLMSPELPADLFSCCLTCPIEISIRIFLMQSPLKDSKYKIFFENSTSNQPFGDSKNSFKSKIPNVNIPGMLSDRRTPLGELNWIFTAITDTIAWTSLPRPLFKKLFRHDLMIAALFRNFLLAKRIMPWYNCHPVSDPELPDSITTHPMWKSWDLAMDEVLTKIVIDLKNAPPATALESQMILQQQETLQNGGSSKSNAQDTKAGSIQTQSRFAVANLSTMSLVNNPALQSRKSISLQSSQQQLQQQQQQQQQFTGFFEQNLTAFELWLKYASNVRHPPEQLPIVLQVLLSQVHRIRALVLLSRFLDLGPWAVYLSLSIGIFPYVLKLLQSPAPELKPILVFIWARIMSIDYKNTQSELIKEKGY
Experiment: pull-down

binding result: binds
B1: His tagged recombinant Rho1 (natural protein, yeast, UniProt P06780 1-209, looked up)
chain: MSQQVGNSIRRKLVIVGDGACGKTCLLIVFSKGQFPEVYVPTVFENYVADVEVDGRRVELALWDTAGQEDYDRLRPLSYPDSNVVLICFSIDLPDSLENVQEKWIAEVLHFCQGVPIILVGCKVDLRNDPQTIEQLRQEGQQPVTSQEGQSVADQIGATGYYECSAKTGYGVREVFEAATRASLMGKSKTNGKAKKNTTEKKKKKCVLL

binding result: binds
B2: His tagged recombinant Tap42 (natural protein, yeast, UniProt Q04372 1-366, looked up)
chain: MASVTEQFNDIISLYSTKLEHTSLRQDSPEYQGLLLSTIKKLLNLKTAIFDRLALFSTNETIDDVSTASIKFLAVDYYLGLLISRRQSNDSDVAQRQSMKLIYLKKSVESFINFLTLLQDYKLLDPLVGEKLGNFKDRYNPQLSELYAQPKNNKDLSGAQLKRKEKIELFQRNKEISTKLHCLELELKNNDEDHDHDELLRELYLMRLHHFSLDTINNIEQNLFECEMLSNFLKNSVHEVKSSGTQIRKESNDDDSTGFTDKLENINKPLIDKKGQVLRNFTLVDKRQQLQQKVRGYGQYGPTMSVEEFLDKEFEEGRVLQGGEEPEQAPDEENMDWQDRETYKAREWDEFKESHAKGSGNTMNRG
